Laboratory results: patent US20250333515A1 (VOR BIOPHARMA, published 2025)

Tests used:
[1] = molecular target: T1, CLL-1 on the surface of CLL-1-positive AML cell lines (HL-60 WT, U937) (human, UniProt Q5QGZ9 1-265); assay: flow cytometry, HL-60 WT, 200 nM; secondary only 5600
T1 construct: whole, on cells; also called HL-60 WT cells; U937 cells
T1 sequence (looked up): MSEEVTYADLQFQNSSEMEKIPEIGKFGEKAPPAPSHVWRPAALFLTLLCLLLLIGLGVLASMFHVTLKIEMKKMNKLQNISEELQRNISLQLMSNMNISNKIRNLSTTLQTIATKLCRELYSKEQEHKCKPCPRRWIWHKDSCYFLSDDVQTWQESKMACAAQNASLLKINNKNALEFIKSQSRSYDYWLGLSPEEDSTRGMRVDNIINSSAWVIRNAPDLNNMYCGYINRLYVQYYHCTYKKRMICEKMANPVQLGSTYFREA
Description: (§1) HL60 WT, U937, or HL-60 CLL-1 knockout (KO) control cells were counted, washed in PBS and mixed with 1 ml of Fixable Viability dye eFluor 780 (diluted at 1:1000 in PBS) then incubated at room temperature for 10 minutes to distinguish Live/Dead cells. Subsequently the cells were washed once with FACS Buffer (PBS with 2% FBS) and incubated with human TruStain FcX™ (Fc block diluted at 1:10 in FACS buffer) at room temperature for 5 minutes. Fc blocked cells were stained with 50 μL of the primary CLL-1 antibody (at 200 nM concentrations) and incubated at 4° C. for 30 minutes in the dark. Cells were subsequently stained with 100 μL of secondary antibody (AF488 Rabbit anti-FLAG-tag diluted at 1:1000) incubated at 4° C. for 30 minutes in the dark. Cells were washed and flow cytometric analysis was performed using flow cytometry and data analysis was performed using FlowJo.

[2] = molecular target: T2, biotinylated recombinant CLL-1 protein (UniProt Q5QGZ9 65-265, limits assumed, biotinylated (site not stated)); assay: ELISA; biotinylated CLL-1 on neutravidin plate, FLAG-tagged binder, anti-FLAG HRP
T2 construct: also called CLEC12A
T2 sequence (looked up): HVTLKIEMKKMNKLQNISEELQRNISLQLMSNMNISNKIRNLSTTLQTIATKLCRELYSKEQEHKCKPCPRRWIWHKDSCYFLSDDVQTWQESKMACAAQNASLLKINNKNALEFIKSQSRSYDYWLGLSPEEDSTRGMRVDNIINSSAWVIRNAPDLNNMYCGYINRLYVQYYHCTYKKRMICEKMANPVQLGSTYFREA
Description: Dose-depending binding activities were analyzed by ELISA. COSTAR® microtiter plates were coated with 1 μg/mL neutravidin protein. Following washing, neutravidin-coated wells were seeded with 100 nM of biotinylated recombinant CLL-1 protein. Following washing, purified FLAG-tagged CLL-1 antibody binders were added to the wells and subsequently detected by mouse anti-FLAG tag HRP conjugate (Sigma).

[3] = molecular target: T1, CLL-1 on the surface of CLL-1-positive …; assay: flow cytometry, U937, 200 nM; last table names out of step
Description: as §1

[4] = molecular target: T1, CLL-1 on the surface of CLL-1-positive …; assay: multi-point flow cytometry on HL-60 WT cells, FLAG-tagged binder, anti-FLAG AlexaFluor 488
Description: Target cell staining was assessed relative to control samples comprising cells stained with secondary antibodies only (see FIG. 6). Multi-point FACS via flow cytometry was performed to assess dose-depending binding of CLL-1 antibody binders to the cell surface of HL-60 WT cells. Un-fixed, un-permeabilized cells were incubated with various concentrations of purified FLAG-tagged anti-CLL-1 antibody clones and cell-surface binding was detected by subsequent incubation in the presence of rabbit anti-FLAG tag antibody AlexaFluor 488-conjugate antibody (R&D Systems).

B1: Anti-CLL-1 Binder Clone 12 (scFv)
scFv: DIQMTQSPSSLSASVGDRVTITCQASQDISNYLNWYQQKPGKAPKLLIYDASNLETGVPSRFSGSGSGTDFTLTISSPQPEDLATYYCQQANSFPFTFGQGTKVEIKGGGGSGGGGSGGGGSQVQLVQSGAEVKKPGSSVKVSCKASGYSFTRNDITWVRQANGRGLEWLGRLNPNNGDTVYAEVFQGRVAMTRDTSTDTAYMELASLKSDDTAVYFCARGFWSFDVWGQGTMVTVSS
notes: scFv (VL-linker-VH); not shown: FLAG tag
In the case of B1, the “Geometric Mean : B530-H” value [1] is reported as 11800, the EC50 [2] is reported as 3.7 nM and the “Geometric Mean : B530-H” value [3] is reported as 59600. For the same binder, the EC50 [4] was 0.2 nM.

B2: Anti-CLL-1 Binder Clone 38 (scFv)
scFv: DIQMTQSPSTLSASVGDRVTITCRASQSISSWLAWYQQKPGKAPKLLIYTASSLQSGVPSRFSGSESGTDFTLTISSLQPEDFATYYCQQSYSTPLTFGGGTKVDIKGGGGSGGGGSGGGGSQVQLVQSGAEVKKPGASVKVSCKASGYTFTGYYMHWVRQAPGQGLEWMGWINPNSGGTNYAQKFQGRVTLTRDTSITTAYLELTSLTSDDTAVYYCARGDTGDFFDHWGQGTLVTVSS
notes: as for B1
For B2, the “Geometric Mean : B530-H” value [1] was 19800, the EC50 [2] was 0.6 nM and the “Geometric Mean : B530-H” value [3] was 55300. The EC50 [4] was 1.6 nM.

B3: Anti-CLL-1 Binder Clone 40 (scFv)
scFv: QSVLTQPPSVSAAPGQKVTISCSGSSSNIGNNYVSWYQQLPGTAPKLLIYDNNKRPSGIPDRFSGSESGTSATLGITGLQTGDEADYYCGTWDSSLSAWVFGGGTQLIILGGGGSGGGGSGGGGSQVQLQQSGPGLVKPSQTLSLTCAISGDSVSSNSAAWNWIRQSPSRGLEWLGRTHYRSKWYNDYAVSVKSRITISADTSKNQFSLQLNSVTPEDTAVYYCARDRYTVRPDAFDIWGQGTTVTVSS
notes: as for B1
B3 was tested, and the “Geometric Mean : B530-H” value [1] was 23100, the EC50 [2] was 0.5 nM and the EC50 [4] was 11.4 nM.

B4: Anti-CLL-1 Binder Clone 20 (VHH)
VHH: QVQLVQSGGGLVQPGGSLRLSCAASDFSFSYYEMSWVRQAPGKGLEWVSTISGSGDSTYYADSVKGRFTISRDNTKNTLYLQMNTLRAEDTATYYCMTDGETWGTHRYTVYWGQGALVTVSS
notes: also called 20 VH; VH clone 20; not shown: FLAG tag
For B4, the “Geometric Mean : B530-H” value [1] was 9110, the EC50 [2] was 4.7 nM and the “Geometric Mean : B530-H” value [3] was 27000.

B5: Anti-CLL-1 Binder Clone 1 (scFv)
scFv: SYVLTQPPSVSVAPGQTARITCGGNNIGSKSVHWYQQKPGQAPVLVVYDDSDRPSGIPERFSGSNSGNTATLTISRVEAGDEADYYCQVWDSSSDHPVFGGGTQLIILGGGGSGGGGSGGGGSQVQLVQSGAEVKKPGSSVKVSCKASGGTFSSYAISWVRQAPGQGLEWMGRIIPILGIANYAQKFQGRVTITADESTSTAYMELSSLRSEDTAVYYCAREKDDILTGAYYYGMDVWGQGTTVTVSS
notes: scFv (VL-linker-VH) from a fully human scFv phage library; not shown: FLAG tag
In the case of B5, the “Geometric Mean : B530-H” value [1] is reported as 18100, the EC50 [2] is reported as 3.4 nM and the “Geometric Mean : B530-H” value [3] is reported as 46300. It also gave an EC50 [4] of 3.2 nM.

B6: Anti-CLL-1 Binder Clone 42 (scFv)
scFv: EIVLTQSPATLSLSPGERATLSCRASQSVSSYLAWYQQKPGQAPRLLIYDASNRATGIPDRFSGSGSGTDFTLTISRLEPEDFAVYYCQQYGSSPVTFGQGTKLEIKGGGGSGGGGSGGGGSQVQLVQSGAEVKKPGSSVKVSCKASGGTFSSYAISWVRQAPGQGLEWMGGIIPIFGTANYAQKFQGRVIMTTDTSTSTAHMELRSLRSDDTAVYYCARDADEFGAFDIWGQGTTVTVSS
notes: as for B1
With B6 the “Geometric Mean : B530-H” value [1] was 10400, the EC50 [2] was 1.5 nM and the “Geometric Mean : B530-H” value [3] was 29000. The EC50 [4] was 2.2 nM.

B7: Anti-CLL-1 Binder Clone 10 (scFv)
scFv: DIQMTQSPSFLSASVGDRVTITCRASQGISSYLAWYQQKPGKAPKLLIYSASSLQSGVPSRFSGSGSGTDFTLTISSLQPEDFATYYCQQSYNSPTFGQGTRLEIKGGGGSGGGGSGGGGSQVQLVQSGAEVKKPGASVKVSCKASGYTFTGYYMHWVRQAPGQGLEWMGWMNPNSGNTGYAQKFQGRVTMTRNTSISTAYLELTSLTSDDTAVYYCARGDTGDFFDHWGQGTLVTVSS
notes: as for B1
B7 was tested, and the “Geometric Mean : B530-H” value [1] was 24900, the EC50 [2] was 1.1 nM and the “Geometric Mean : B530-H” value [3] was 52100. For the same binder, the EC50 [4] was 0.2 nM.

B8: Anti-CLL-1 Binder Clone 11 (scFv)
scFv: QSVLTQPASVSGSPGQSITISCTGTSSDVGASNSVSWYQRHPGKPPKLMIYDVSNRPSGISNRFSGSKSGNTASLTISGLQSEDEADYYCSSYTGSSTFVVFGGGTQLIILGGGGSGGGGSGGGGSEVQLVESGGGVVQPGGSLRLSCAASGFTFSSYWMSWVRQAPGKGLEWVANIRQDGSEKYYVDSVKGRFTISRDNAKNSLYLQMNSLRAEDAAVYYCAREQDTAMVAFDYWGQGTLVTVSS
notes: as for B1
In the case of B8, the “Geometric Mean : B530-H” value [1] is reported as 20500, the EC50 [2] is reported as 1.4 nM and the “Geometric Mean : B530-H” value [3] is reported as 60200. It also gave an EC50 [4] of 0.2 nM.

B9: Anti-CLL-1 Binder Clone 4 (scFv)
scFv: QSVVTQPPSVSAAPGQKVTISCSGSSPNIGKNYVSWYQQLPGTAPKLLIYDNNKRPSGIPDRFSGSKSGTSATLGITGLQTGDEADYYCGTWDSSLSGYVFGTGTKVTVLGGGGSGGGGSGGGGSQVQLVESGGGVVQPGRSLRLSCAASGFTFSSYGMHWVRQAPGKGLEWVAFISHDGSNKYYADSVKGRSTISRDNSKSTLFLQMNSLRDEDTAVYFCAREGQLTTSWDFFDYWGHGTLVTVSS
notes: as for B1
For B9, the “Geometric Mean : B530-H” value [1] was 11600, the EC50 [2] was 1.4 nM and the “Geometric Mean : B530-H” value [3] was 33600. For the same binder, the EC50 [4] was 6.4 nM.

B10: Anti-CLL-1 Binder Clone 6 (scFv)
scFv: QSVLTQPPSVSAAPGQKVSIFCSGGSSNIGKNYVSWYQQLPGTAPKLLIYENQHRPSGIPDRFSGSKSGTSATLGITGLQTGDEADYYCATWDDSLSAGVFGGGTELTVLGGGGSGGGGSGGGGSQLVQSGAEVRKPGESLKISCKGSGYSFTSYWIGWVRQMPGKGLEWMGFIYPGDSDTRYSPSFQGQVTISADKSISTAYLQRSSLKASDTAMYYCARLGGYSGYDSEVFYLDYWGQGTTVTVSS
notes: as for B1
B10 was tested, and the “Geometric Mean : B530-H” value [1] was 9390, the EC50 [2] was 0.9 nM and the “Geometric Mean : B530-H” value [3] was 34300. The EC50 [4] was 59 nM.

B11: Anti-CLL-1 Binder Clone 2 (scFv)
scFv: QSVLTQPLSVSVALGQTARITCGGNNIGSKNVHWYQQKAGQAPVLVIQRDSNRPSGIPERFSGSNSGNTATLTISRAQAGDEADYFCQVWDSNTYVFGTGTKLTVLGGGGSGGGGSGGGGSEVQLVESGGGLVKPGGSLRLSCAASGFTFSDYYMSWIRQAPGKGLEWVSYISSSGSTIYYADSVKGRFTISRDNAKNSLYLQMNSLRDEDTAVYYCARQSAEIVGAFDHWGQGTMVTVSS
notes: as for B1
With B11 the “Geometric Mean : B530-H” value [1] was 11100, the EC50 [2] was 0.9 nM and the “Geometric Mean : B530-H” value [3] was 50800. It also gave an EC50 [4] of 1.8 nM.
